# Assay results: patent US20200121803A1 (published 2020)
# T1: human CD98, endogenously expressed on Molt-4 human acute lymphoblastic leukemia cells (human)
# T1 chain: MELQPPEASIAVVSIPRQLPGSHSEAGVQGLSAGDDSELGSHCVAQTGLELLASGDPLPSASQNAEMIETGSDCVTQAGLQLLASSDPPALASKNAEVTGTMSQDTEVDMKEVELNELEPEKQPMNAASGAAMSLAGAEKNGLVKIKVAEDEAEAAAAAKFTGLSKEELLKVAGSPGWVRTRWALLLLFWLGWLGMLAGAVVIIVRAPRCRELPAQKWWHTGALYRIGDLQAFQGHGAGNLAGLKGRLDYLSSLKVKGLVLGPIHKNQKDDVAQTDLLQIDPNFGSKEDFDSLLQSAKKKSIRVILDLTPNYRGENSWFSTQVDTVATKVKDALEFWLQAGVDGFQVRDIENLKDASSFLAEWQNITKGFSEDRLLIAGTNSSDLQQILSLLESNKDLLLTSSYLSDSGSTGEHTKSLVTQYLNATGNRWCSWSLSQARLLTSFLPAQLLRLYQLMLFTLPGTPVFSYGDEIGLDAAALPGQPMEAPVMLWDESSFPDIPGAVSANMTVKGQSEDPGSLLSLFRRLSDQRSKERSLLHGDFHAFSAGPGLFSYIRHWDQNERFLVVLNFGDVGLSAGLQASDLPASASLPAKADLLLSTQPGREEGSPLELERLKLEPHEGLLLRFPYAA
# Biological target: T1, human CD98, endogenously expressed on …
# Assay: cell-based or functional assay
Binder,% Cell Viability at 50 nM [%],Molt4 IC50 [nM]
"CD98 (CL-huAb110)-CZ (antibody, human IgG1, kappa, L234A L235A, V domains shown, synthon CZ on reduced interchain cysteines (sites not given)) VH: EVQLVQSGAEVKKPGASVKVSCKASGFTFSDYTMAWVRQAPGQGLEWVATIIYDARGTYYRDAVKGRFTITRDNSTSTLYLELSSLRSEDTAVYYCARQSDDTYYYWGYFDYWGQGTMVTVSS VL: DIVMTQTPLSLPVTPGEPASINCKSSQSLLFSGNQKNYLAWYLQKPGQSPQLLIYWASTRQSGVPDRFSGSGSGTDFTLKISRVEAEDVGIYYCQQYYSSPYTFGQGTKLEIKR",0.8,0.064
"CD98 (CL-huAb108)-AAA (antibody, human IgG1, kappa, L234A L235A, V domains shown, synthon AAA on reduced interchain cysteines (sites not given)) VH: EVQLVQSGAEVKKPGASVKVSCKASGFTFSDYTMAWVRQAPGQGLEWVATIIYSGRGTYYRDAVKGRFTITRDNSTSTLYLELSSLRSEDTAVYYCARQSDDTYYYWGYFDYWGQGTMVTVSS VL: DIVMTQTPLSLPVTPGEPASINCKSSQSLLFSGNQKNYLAWYLQKPGQSPQLLIYWASTRQSGVPDRFSGSGSGTDFTLKISRVEAEDVGIYYCQQYYDVPYTFGQGTKLEIKR",2.9,0.18
"CD98 (CL-huAb108)-TX (antibody, human IgG1, kappa, L234A L235A, V domains shown, synthon TX on reduced interchain cysteines (sites not given)) VH: EVQLVQSGAEVKKPGASVKVSCKASGFTFSDYTMAWVRQAPGQGLEWVATIIYSGRGTYYRDAVKGRFTITRDNSTSTLYLELSSLRSEDTAVYYCARQSDDTYYYWGYFDYWGQGTMVTVSS VL: DIVMTQTPLSLPVTPGEPASINCKSSQSLLFSGNQKNYLAWYLQKPGQSPQLLIYWASTRQSGVPDRFSGSGSGTDFTLKISRVEAEDVGIYYCQQYYDVPYTFGQGTKLEIKR",3,0.15
"CD98 (CL-huAb110)-TV (antibody, human IgG1, kappa, L234A L235A, V domains shown, synthon TV on reduced interchain cysteines (sites not given)) VH: EVQLVQSGAEVKKPGASVKVSCKASGFTFSDYTMAWVRQAPGQGLEWVATIIYDARGTYYRDAVKGRFTITRDNSTSTLYLELSSLRSEDTAVYYCARQSDDTYYYWGYFDYWGQGTMVTVSS VL: DIVMTQTPLSLPVTPGEPASINCKSSQSLLFSGNQKNYLAWYLQKPGQSPQLLIYWASTRQSGVPDRFSGSGSGTDFTLKISRVEAEDVGIYYCQQYYSSPYTFGQGTKLEIKR",1,0.09
"CD98 (CL-huAb108)-YY (antibody, human IgG1, kappa, L234A L235A, V domains shown, synthon YY on reduced interchain cysteines (sites not given)) VH: EVQLVQSGAEVKKPGASVKVSCKASGFTFSDYTMAWVRQAPGQGLEWVATIIYSGRGTYYRDAVKGRFTITRDNSTSTLYLELSSLRSEDTAVYYCARQSDDTYYYWGYFDYWGQGTMVTVSS VL: DIVMTQTPLSLPVTPGEPASINCKSSQSLLFSGNQKNYLAWYLQKPGQSPQLLIYWASTRQSGVPDRFSGSGSGTDFTLKISRVEAEDVGIYYCQQYYDVPYTFGQGTKLEIKR",2.9,0.14
"CD98 (CL-huAb102)-TX (antibody, human IgG1, kappa, L234A L235A, V domains shown, synthon TX on reduced interchain cysteines (sites not given)) VH: EVQLVESGGGLVQPGGSLRLSCATSGFTFIDYYMSWVRQAPGKGLEWLGFIRNKANRYTTEYSASVKGRFTISRDNSKSILYLQMNSLKTEDTAVYYCTRDRPAWFVYWGQGTLVTVSS VL: DIVMTQTPLSLPVTPGEPASISCKSSQSLLYSSNQKNYLAWYLQKPGQSPQLLIYWASTRESGVPDRFSGSGSGTDFTLKISRVEAEDVGVYYCQQYYSYPYTFGGGTKVEIKR",2.8,0.05
"CD98 (CL-huAb110)-YY (antibody, human IgG1, kappa, L234A L235A, V domains shown, synthon YY on reduced interchain cysteines (sites not given)) VH: EVQLVQSGAEVKKPGASVKVSCKASGFTFSDYTMAWVRQAPGQGLEWVATIIYDARGTYYRDAVKGRFTITRDNSTSTLYLELSSLRSEDTAVYYCARQSDDTYYYWGYFDYWGQGTMVTVSS VL: DIVMTQTPLSLPVTPGEPASINCKSSQSLLFSGNQKNYLAWYLQKPGQSPQLLIYWASTRQSGVPDRFSGSGSGTDFTLKISRVEAEDVGIYYCQQYYSSPYTFGQGTKLEIKR",1.9,0.13
"CD98 (CL-huAb102)-TV (antibody, human IgG1, kappa, L234A L235A, V domains shown, synthon TV on reduced interchain cysteines (sites not given)) VH: EVQLVESGGGLVQPGGSLRLSCATSGFTFIDYYMSWVRQAPGKGLEWLGFIRNKANRYTTEYSASVKGRFTISRDNSKSILYLQMNSLKTEDTAVYYCTRDRPAWFVYWGQGTLVTVSS VL: DIVMTQTPLSLPVTPGEPASISCKSSQSLLYSSNQKNYLAWYLQKPGQSPQLLIYWASTRESGVPDRFSGSGSGTDFTLKISRVEAEDVGVYYCQQYYSYPYTFGGGTKVEIKR",1.5,0.02
"CD98 (CL-huAb104)-TV (antibody, human IgG1, kappa, L234A L235A, V domains shown, synthon TV on reduced interchain cysteines (sites not given)) VH: EVQLVESGGGLVQPGGSLRLSCATSGFTFIDYYMSWVRQAPGKGLEWLGFIRNKAYGYTTEYSASVKGRFTISRDNSKSILYLQMNSLKTEDTAVYYCTRDRPAWFVYWGQGTLVTVSS VL: DIVMTQTPLSLPVTPGEPASISCKSSQSLLYSSNQKNYLAWYLQKPGQSPQLLIYWASTRESGVPDRFSGSGSGTDFTLKISRVEAEDVGVYYCQQYYSYPYTFGGGTKVEIKR",1.4,0.03
"CD98 (CL-huAb104)-TX (antibody, human IgG1, kappa, L234A L235A, V domains shown, synthon TX on reduced interchain cysteines (sites not given)) VH: EVQLVESGGGLVQPGGSLRLSCATSGFTFIDYYMSWVRQAPGKGLEWLGFIRNKAYGYTTEYSASVKGRFTISRDNSKSILYLQMNSLKTEDTAVYYCTRDRPAWFVYWGQGTLVTVSS VL: DIVMTQTPLSLPVTPGEPASISCKSSQSLLYSSNQKNYLAWYLQKPGQSPQLLIYWASTRESGVPDRFSGSGSGTDFTLKISRVEAEDVGVYYCQQYYSYPYTFGGGTKVEIKR",4.3,0.06
"CD98 (CL-huAb110)-TX (antibody, human IgG1, kappa, L234A L235A, V domains shown, synthon TX on reduced interchain cysteines (sites not given)) VH: EVQLVQSGAEVKKPGASVKVSCKASGFTFSDYTMAWVRQAPGQGLEWVATIIYDARGTYYRDAVKGRFTITRDNSTSTLYLELSSLRSEDTAVYYCARQSDDTYYYWGYFDYWGQGTMVTVSS VL: DIVMTQTPLSLPVTPGEPASINCKSSQSLLFSGNQKNYLAWYLQKPGQSPQLLIYWASTRQSGVPDRFSGSGSGTDFTLKISRVEAEDVGIYYCQQYYSSPYTFGQGTKLEIKR",2.5,0.14
"CD98 (CL-huAb102)-YY (antibody, human IgG1, kappa, L234A L235A, V domains shown, synthon YY on reduced interchain cysteines (sites not given)) VH: EVQLVESGGGLVQPGGSLRLSCATSGFTFIDYYMSWVRQAPGKGLEWLGFIRNKANRYTTEYSASVKGRFTISRDNSKSILYLQMNSLKTEDTAVYYCTRDRPAWFVYWGQGTLVTVSS VL: DIVMTQTPLSLPVTPGEPASISCKSSQSLLYSSNQKNYLAWYLQKPGQSPQLLIYWASTRESGVPDRFSGSGSGTDFTLKISRVEAEDVGVYYCQQYYSYPYTFGGGTKVEIKR",3.1,0.05
"CD98 (CL-huAb110)-AAA (antibody, human IgG1, kappa, L234A L235A, V domains shown, synthon AAA on reduced interchain cysteines (sites not given)) VH: EVQLVQSGAEVKKPGASVKVSCKASGFTFSDYTMAWVRQAPGQGLEWVATIIYDARGTYYRDAVKGRFTITRDNSTSTLYLELSSLRSEDTAVYYCARQSDDTYYYWGYFDYWGQGTMVTVSS VL: DIVMTQTPLSLPVTPGEPASINCKSSQSLLFSGNQKNYLAWYLQKPGQSPQLLIYWASTRQSGVPDRFSGSGSGTDFTLKISRVEAEDVGIYYCQQYYSSPYTFGQGTKLEIKR",1.9,0.16
"CD98 (CL-huAb102)-AAA (antibody, human IgG1, kappa, L234A L235A, V domains shown, synthon AAA on reduced interchain cysteines (sites not given)) VH: EVQLVESGGGLVQPGGSLRLSCATSGFTFIDYYMSWVRQAPGKGLEWLGFIRNKANRYTTEYSASVKGRFTISRDNSKSILYLQMNSLKTEDTAVYYCTRDRPAWFVYWGQGTLVTVSS VL: DIVMTQTPLSLPVTPGEPASISCKSSQSLLYSSNQKNYLAWYLQKPGQSPQLLIYWASTRESGVPDRFSGSGSGTDFTLKISRVEAEDVGVYYCQQYYSYPYTFGGGTKVEIKR",2.4,0.05
"CD98 (CL-huAb108)-TV (antibody, human IgG1, kappa, L234A L235A, V domains shown, synthon TV on reduced interchain cysteines (sites not given)) VH: EVQLVQSGAEVKKPGASVKVSCKASGFTFSDYTMAWVRQAPGQGLEWVATIIYSGRGTYYRDAVKGRFTITRDNSTSTLYLELSSLRSEDTAVYYCARQSDDTYYYWGYFDYWGQGTMVTVSS VL: DIVMTQTPLSLPVTPGEPASINCKSSQSLLFSGNQKNYLAWYLQKPGQSPQLLIYWASTRQSGVPDRFSGSGSGTDFTLKISRVEAEDVGIYYCQQYYDVPYTFGQGTKLEIKR",1.1,0.08
"CD98 (CL-huAb104)-YY (antibody, human IgG1, kappa, L234A L235A, V domains shown, synthon YY on reduced interchain cysteines (sites not given)) VH: EVQLVESGGGLVQPGGSLRLSCATSGFTFIDYYMSWVRQAPGKGLEWLGFIRNKAYGYTTEYSASVKGRFTISRDNSKSILYLQMNSLKTEDTAVYYCTRDRPAWFVYWGQGTLVTVSS VL: DIVMTQTPLSLPVTPGEPASISCKSSQSLLYSSNQKNYLAWYLQKPGQSPQLLIYWASTRESGVPDRFSGSGSGTDFTLKISRVEAEDVGVYYCQQYYSYPYTFGGGTKVEIKR",2.7,0.03
"CD98 (CL-huAb102)-AAD (antibody, human IgG1, kappa, L234A L235A, V domains shown, synthon AAD on reduced interchain cysteines (sites not given)) VH: EVQLVESGGGLVQPGGSLRLSCATSGFTFIDYYMSWVRQAPGKGLEWLGFIRNKANRYTTEYSASVKGRFTISRDNSKSILYLQMNSLKTEDTAVYYCTRDRPAWFVYWGQGTLVTVSS VL: DIVMTQTPLSLPVTPGEPASISCKSSQSLLYSSNQKNYLAWYLQKPGQSPQLLIYWASTRESGVPDRFSGSGSGTDFTLKISRVEAEDVGVYYCQQYYSYPYTFGGGTKVEIKR",2.2,0.024
"CD98 (CL-huAb104)-AAA (antibody, human IgG1, kappa, L234A L235A, V domains shown, synthon AAA on reduced interchain cysteines (sites not given)) VH: EVQLVESGGGLVQPGGSLRLSCATSGFTFIDYYMSWVRQAPGKGLEWLGFIRNKAYGYTTEYSASVKGRFTISRDNSKSILYLQMNSLKTEDTAVYYCTRDRPAWFVYWGQGTLVTVSS VL: DIVMTQTPLSLPVTPGEPASISCKSSQSLLYSSNQKNYLAWYLQKPGQSPQLLIYWASTRESGVPDRFSGSGSGTDFTLKISRVEAEDVGVYYCQQYYSYPYTFGGGTKVEIKR",2.2,0.04
